Changes are numbered by the printed parent chain. Numbers in names are those of the source.

Assay [1] deals with T1, FcRnECDHis-B2M-BIO (biotinylated extracellular domain of human FcRn with a C-terminal His tag as dimer with … (human, UniProt P55899 24-297)); P61769 21-119, biotinylated (site not stated)).
T1 construct: Coated on Streptawell plates at 5 µg/mL; also called FcRnhsECDHis
As to the kind of experiment: FcRn ELISA, pH 6.0. A general note: In an ELISA, binding on a coated surface is turned into a signal by an enzyme label.

The target of assay [2] is T2, dimeric, His-tagged, C-terminally biotinylated ECD of FcγRIIA allotype 131H (Homo sapiens (Human), UniProt P12318 34-215, C-terminally biotinylated).
T2 sequence: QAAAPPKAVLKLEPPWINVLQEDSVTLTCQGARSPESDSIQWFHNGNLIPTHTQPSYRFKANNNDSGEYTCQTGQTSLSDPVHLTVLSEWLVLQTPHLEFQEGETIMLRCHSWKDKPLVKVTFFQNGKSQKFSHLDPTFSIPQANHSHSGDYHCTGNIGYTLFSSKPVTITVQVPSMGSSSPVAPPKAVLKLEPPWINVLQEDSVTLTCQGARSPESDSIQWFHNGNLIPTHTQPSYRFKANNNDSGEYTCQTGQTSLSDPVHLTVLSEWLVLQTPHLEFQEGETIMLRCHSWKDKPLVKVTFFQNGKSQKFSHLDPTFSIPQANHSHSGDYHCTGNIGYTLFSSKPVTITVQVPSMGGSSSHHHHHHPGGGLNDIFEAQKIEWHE
Description: FcγR ELISA.

In assay [3] the target is T3, dimeric, His-tagged, C-terminally biotinylated ECD of FcγRIIIA allotype 158V (C-terminally biotinylated).
T3 construct: also called diFCGR3A-158V-HisBAP; IIIA-158V
Description: FcγR ELISA.

In assay [4] the target is T1, FcRnECDHis-B2M-BIO (biotinylated …). Description: FcRn ELISA, pH 7.4.
In assay [5] the target is dimeric, His-tagged, C-terminally biotinylated ECD of FcγRIIIA allotype 158F (C-terminally biotinylated). Description: FcγR ELISA.

T1 sequence (P55899 other isoform, or with tags, fused parts or gaps limits assumed, chain 1 of 2): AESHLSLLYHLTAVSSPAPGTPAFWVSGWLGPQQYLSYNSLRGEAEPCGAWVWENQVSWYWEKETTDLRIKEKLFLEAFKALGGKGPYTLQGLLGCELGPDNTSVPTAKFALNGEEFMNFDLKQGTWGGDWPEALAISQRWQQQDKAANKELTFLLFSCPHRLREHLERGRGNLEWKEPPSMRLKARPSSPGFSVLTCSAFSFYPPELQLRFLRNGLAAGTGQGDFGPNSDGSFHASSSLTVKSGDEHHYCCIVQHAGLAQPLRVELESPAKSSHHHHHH
T1 sequence (P61769 21-119 limits assumed, chain 2 of 2): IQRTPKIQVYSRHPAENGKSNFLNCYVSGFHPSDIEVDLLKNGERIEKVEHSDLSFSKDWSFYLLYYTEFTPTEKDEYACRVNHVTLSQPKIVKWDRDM

B1: IgG1-b12 (human IgG1 antibody b12, HIV gp120-specific) (antibody)
heavy: not shown
light: EIVLTQSPGTLSLSPGERATFSCRSSHSIRSRRVAWYQHKPGQAPRLVIHGVSNRASGISDRFSGSGSGTDFTLTITRVEPEDFALYYCQVYGASSYTFGQGTKLERKRTVAAPSVFIFPPSDEQLKSGTASVVCLLNNFYPREAKVQWKVDNALQSGNSQESVTEQDSKDSTYSLSSTLTLSKADYEKHKVYACEVTHQGLSSPVTKSFNRGEC
notes: also called IgG-b12
Take B1: the binding result in assay [1] was “binds”.

B2: IgG1-CAMPATH-1H-E430G-K439E with introduced mutation G237A (antibody, name in EU numbering)
heavy: QVQLQESGPGLVRPSQTLSLTCTVSGFTFTDFYMNWVRQPPGRGLEWIGFIRDKAKGYTTEYNPSVKGRVTMLVDTSKNQFSLRLSSVTAADTAVYYCAREGHTAAPFDYWGQGSLVTVSSASTKGPSVFPLAPSSKSTSGGTAALGCLVKDYFPEPVTVSWNSGALTSGVHTFPAVLQSSGLYSLSSVVTVPSSSLGTQTYICNVNHKPSNTKVDKRVEPKSCDKTHTCPPCPAPELLGAPSVFLFPPKPKDTLMISRTPEVTCVVVDVSHEDPEVKFNWYVDGVEVHNAKTKPREEQYNSTYRVVSVLTVLHQDWLNGKEYKCKVSNKALPAPIEKTISKAKGQPREPQVYTLPPSREEMTKNQVSLTCLVKGFYPSDIAVEWESNGQPENNYKTTPPVLDSDGSFFLYSKLTVDKSRWQQGNVFSCSVMHGALHNHYTQESLSLSPGK
light: not shown
notes: also called IgG1-CAMPATH-1H-E430G-K439E-G237A
For B2, the binding result in assay [2] and in assay [3] was “no binding (tested: 20 µg/mL)” each time.

B3: IgG1-Campath-E430G H310R/S440K (antibody)
heavy: B2 heavy with A241G, H314R, E443K, S444K
light: not shown
notes: also called IgG1-CAMPATH-1H-E430G-S440K with H310R; constant region IgG1m(f)-H310R-E430G-S440K
Consider B3, for which the binding result in assay [4] is “no binding (tested: 40 µg/mL)”.

B4: IgG1-Campath-E430G H310D/K439E (antibody)
heavy: B2 heavy with A241G, H314D
light: not shown
notes: also called IgG1-CAMPATH-1H-E430G-K439E with H310D; constant region IgG1m(f)-H310D-E430G-K439E
Consider B4, for which the binding result in assay [4] is reported as “no binding (tested: 40 µg/mL)”.

B5: IgG1-Campath-E430G I253R/S440K (antibody)
heavy: B2 heavy with A241G, I257R, E443K, S444K
light: not shown
notes: also called IgG1-CAMPATH-1H-E430G-S440K with I253R; constant region IgG1m(f)-I253R-E430G-S440K
In the case of B5, the binding result in assay [4] was “no binding (tested: 40 µg/mL)”.

B6: IgG1-Campath-E430G I253K/S440K (antibody)
heavy: B2 heavy with A241G, I257K, E443K, S444K
light: not shown
notes: also called IgG1-CAMPATH-1H-E430G-S440K with I253K; constant region IgG1m(f)-I253K-E430G-S440K
As for B6, the binding result in assay [4] is listed as “no binding (tested: 40 µg/mL)”.

B7: IgG1-Campath-E430G I253G/K439E (antibody)
heavy: B2 heavy with A241G, I257G
light: not shown
notes: also called IgG1-CAMPATH-1H-E430G-K439E with I253G; constant region IgG1m(f)-I253G-E430G-K439E
Consider B7, for which, in assay [4], the binding result is “no binding (tested: 40 µg/mL)”.

B8: IgG1-11B8-E430G-S440K with introduced mutation G237A (antibody, name in EU numbering)
heavy: EVQLVQSGGGLVHPGGSLRLSCTGSGFTFSYHAMHWVRQAPGKGLEWVSIIGTGGVTYYADSVKGRFTISRDNVKNSLYLQMNSLRAEDMAVYYCARDYYGAGSFYDGLYGMDVWGQGTTVTVSSASTKGPSVFPLAPSSKSTSGGTAALGCLVKDYFPEPVTVSWNSGALTSGVHTFPAVLQSSGLYSLSSVVTVPSSSLGTQTYICNVNHKPSNTKVDKRVEPKSCDKTHTCPPCPAPELLGAPSVFLFPPKPKDTLMISRTPEVTCVVVDVSHEDPEVKFNWYVDGVEVHNAKTKPREEQYNSTYRVVSVLTVLHQDWLNGKEYKCKVSNKALPAPIEKTISKAKGQPREPQVYTLPPSREEMTKNQVSLTCLVKGFYPSDIAVEWESNGQPENNYKTTPPVLDSDGSFFLYSKLTVDKSRWQQGNVFSCSVMHGALHNHYTQKKLSLSPGK
light: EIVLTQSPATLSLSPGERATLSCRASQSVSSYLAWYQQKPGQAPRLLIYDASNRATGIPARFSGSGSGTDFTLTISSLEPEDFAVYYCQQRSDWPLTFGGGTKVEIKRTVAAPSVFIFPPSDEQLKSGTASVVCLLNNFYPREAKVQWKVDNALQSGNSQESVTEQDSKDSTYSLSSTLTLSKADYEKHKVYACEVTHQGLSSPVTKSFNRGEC
notes: also called IgG1-11B8-E430G-S440K-G237A
With B8, the binding result in assay [2], in assay [5] and in assay [3] was “no binding (tested: 20 µg/mL)” in each case.

The values are drawn from patent US20210107988A1 (Genmab, published 2021).
